Experimental data from the RNAGym collection of RNA variant scans (doi:10.1073/pnas.2313332121).
Fewer inactive variants are shown than the library holds.

B1: TPR 5TU (parent)
chain: GGAUCUUCUCGAUCUAACAAAAAAGACAAAUCUGCCACAAAGCUUGAGAGCAUCUUCGGAUGCAGAGGCGGCAGCCUUCGGUGGCGCGAUAGCGCCAACGUUCUCAACUAUGACACGCAAAACGCGUGCUCCGUUGAAUGGAGUUUAUCAUG

Variants of: B1
Assay: polymerase ribozyme fitness, log enrichment relative to wild type (log ratio); higher = more active; in vitro selection for triplet polymerase activity
Method in brief: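 Genotype fitness is the logarithm of its enrichment divided by wild-type enrichment, using inverse-variance-weighted averages of replicates. That logarithm is base 2. Enrichment was measured by Illumina sequencing of input and output libraries from one triplicate in vitro selection round, with frozen incubation at −7 °C, on PCR-built, transcribed mutant libraries of each subunit of a heterodimeric triplet polymerase ribozyme, retaining genotypes with ≥10 input reads and ≥1 read per output.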

Question: For U61A A64C G71A G86A A91C C93U C118G, which “polymerase ribozyme fitness (log ratio)” value is on record?
Answer: The value was ≤ -4.2.

Question: Which “polymerase ribozyme fitness (log ratio)” value does the source give for U61A C69A C85A U139A C149G here?
Answer: The value was ≤ -4.2.

Question: With U61A A147U as the variant, how does the “polymerase ribozyme fitness (log ratio)” value read?
Answer: Its value is -0.329.

Question: Which “polymerase ribozyme fitness (log ratio)” value does the source give for A60G U104G G136U U144C here?
Answer: Its value is -3.29.

Question: For A60U C79U A98G C103A, which “polymerase ribozyme fitness (log ratio)” value is on record?
Answer: The value was ≤ -4.2.

Question: With A60U C132U as the variant, how does the “polymerase ribozyme fitness (log ratio)” value read?
Answer: Its value is -0.719.

Question: Which “polymerase ribozyme fitness (log ratio)” value does the source give for A60C C93U C123A here?
Answer: The value was -1.12.

Question: Which “polymerase ribozyme fitness (log ratio)” value does the source give for A60U C131A here?
Answer: Its value is -2.81.

Question: Which “polymerase ribozyme fitness (log ratio)” value does the source give for U61A A91U here?
Answer: Its value is ≤ -4.2.

Question: Which “polymerase ribozyme fitness (log ratio)” value does the source give for A60G C105G U145G here?
Answer: Its value is -1.64.

Question: For A60G U102A U109G A115C, which “polymerase ribozyme fitness (log ratio)” value is on record?
Answer: The value was -3.77.

Question: Which “polymerase ribozyme fitness (log ratio)” value does the source give for A60G C79G here?
Answer: The value was -3.75.

Question: Which “polymerase ribozyme fitness (log ratio)” value does the source give for U61A C95U here?
Answer: The value was -0.916.

Question: With A60C U61G G92A A110U as the variant, how does the “polymerase ribozyme fitness (log ratio)” value read?
Answer: Its value is -3.93.

Question: For U61A C87U G92A A106G A122U, which “polymerase ribozyme fitness (log ratio)” value is on record?
Answer: The value was -2.84.

Question: Which “polymerase ribozyme fitness (log ratio)” value does the source give for A60C G62C G83U G133A here?
Answer: Its value is ≤ -4.2.

Question: For A60G C95U, which “polymerase ribozyme fitness (log ratio)” value is on record?
Answer: Its value is -0.927.

Question: With A60U C76U G86A G141A as the variant, how does the “polymerase ribozyme fitness (log ratio)” value read?
Answer: The value was -3.96.

Question: Which “polymerase ribozyme fitness (log ratio)” value does the source give for U61A C149A here?
Answer: Its value is ≤ -4.2.

Question: With U61A C96A G126A C131U as the variant, how does the “polymerase ribozyme fitness (log ratio)” value read?
Answer: Its value is -2.54.

Question: For A60G C93G, which “polymerase ribozyme fitness (log ratio)” value is on record?
Answer: The value was -3.44.

Question: For A60U C85U U148C, which “polymerase ribozyme fitness (log ratio)” value is on record?
Answer: Its value is -3.17.

Question: With A60U G65C as the variant, how does the “polymerase ribozyme fitness (log ratio)” value read?
Answer: Its value is -3.98.

Question: With A60U G84U U102G as the variant, how does the “polymerase ribozyme fitness (log ratio)” value read?
Answer: The value was -4.18.

Question: Which “polymerase ribozyme fitness (log ratio)” value does the source give for U61A C75G here?
Answer: The value was -3.89.

Question: With U61A C125A as the variant, how does the “polymerase ribozyme fitness (log ratio)” value read?
Answer: The value was -2.73.

Question: For U61A C125U, which “polymerase ribozyme fitness (log ratio)” value is on record?
Answer: The value was -1.86.

Question: Which “polymerase ribozyme fitness (log ratio)” value does the source give for A60U U77A here?
Answer: The value was ≤ -4.2.

Question: For U61A G65C C85A C96G U151C, which “polymerase ribozyme fitness (log ratio)” value is on record?
Answer: Its value is ≤ -4.2.

Question: Which “polymerase ribozyme fitness (log ratio)” value does the source give for A60G C99U A150C here?
Answer: Its value is -4.02.

Question: With A60G A115G U144C U146A A150U as the variant, how does the “polymerase ribozyme fitness (log ratio)” value read?
Answer: Its value is -3.85.

Question: For A60U C93U, which “polymerase ribozyme fitness (log ratio)” value is on record?
Answer: Its value is -3.16.

Question: With A60U C96U as the variant, how does the “polymerase ribozyme fitness (log ratio)” value read?
Answer: Its value is -0.416.

Question: With A60G C87U U101A as the variant, how does the “polymerase ribozyme fitness (log ratio)” value read?
Answer: The value was -0.517.

Question: Which “polymerase ribozyme fitness (log ratio)” value does the source give for A60G U77G C87U C132G here?
Answer: The value was ≤ -4.2.

Question: Which “polymerase ribozyme fitness (log ratio)” value does the source give for A60G G68U G80C U139A here?
Answer: The value was ≤ -4.2.

Question: For A60C U61C C76U A121G, which “polymerase ribozyme fitness (log ratio)” value is on record?
Answer: Its value is ≤ -4.2.

Question: Which “polymerase ribozyme fitness (log ratio)” value does the source give for A60G C76A A91G C95U A107C here?
Answer: Its value is ≤ -4.2.

Question: With A60U A106G as the variant, how does the “polymerase ribozyme fitness (log ratio)” value read?
Answer: Its value is -0.0172.

Question: With A60G G92A C96U A121C as the variant, how does the “polymerase ribozyme fitness (log ratio)” value read?
Answer: Its value is -2.75.

Question: Which “polymerase ribozyme fitness (log ratio)” value does the source give for A60C C103A here?
Answer: Its value is ≤ -4.2.

Question: With A60G G70C U77A U135G as the variant, how does the “polymerase ribozyme fitness (log ratio)” value read?
Answer: The value was ≤ -4.2.

Question: Which “polymerase ribozyme fitness (log ratio)” value does the source give for A60U U61A C69G C96U here?
Answer: Its value is ≤ -4.2.

Question: Which “polymerase ribozyme fitness (log ratio)” value does the source give for A60G C95U C96A here?
Answer: The value was -1.03.

Question: Which “polymerase ribozyme fitness (log ratio)” value does the source give for U61A A97C here?
Answer: Its value is -1.48.

Question: With A60C G80A as the variant, how does the “polymerase ribozyme fitness (log ratio)” value read?
Answer: The value was -2.27.

Question: For A60U G84A C116U, which “polymerase ribozyme fitness (log ratio)” value is on record?
Answer: The value was -1.05.

Question: For A60G C69A G88A C95G U101A A106C A107G A119C U148A, which “polymerase ribozyme fitness (log ratio)” value is on record?
Answer: The value was ≤ -4.2.

Question: With A60C G71A C85A G143C as the variant, how does the “polymerase ribozyme fitness (log ratio)” value read?
Answer: Its value is ≤ -4.2.

Question: With A60C U82G G84A as the variant, how does the “polymerase ribozyme fitness (log ratio)” value read?
Answer: The value was -1.71.

Question: With U61A C85U C87A C118G U134A as the variant, how does the “polymerase ribozyme fitness (log ratio)” value read?
Answer: The value was ≤ -4.2.

Question: With A60U G70A C85U G86A as the variant, how does the “polymerase ribozyme fitness (log ratio)” value read?
Answer: The value was ≤ -4.2.

Question: For U61A C72U, which “polymerase ribozyme fitness (log ratio)” value is on record?
Answer: Its value is -3.66.

Question: With U61A C105U U134G U139G as the variant, how does the “polymerase ribozyme fitness (log ratio)” value read?
Answer: Its value is -4.18.

Question: For A60G A107U C131G, which “polymerase ribozyme fitness (log ratio)” value is on record?
Answer: Its value is ≤ -4.2.

Question: For A60U U61A A142C, which “polymerase ribozyme fitness (log ratio)” value is on record?
Answer: Its value is -3.49.

Question: For A60G G94A U102A C123G, which “polymerase ribozyme fitness (log ratio)” value is on record?
Answer: The value was -1.46.

Question: Which “polymerase ribozyme fitness (log ratio)” value does the source give for A60G A107U here?
Answer: The value was -3.1.

Question: For A60G G67U C93U C99U C129U, which “polymerase ribozyme fitness (log ratio)” value is on record?
Answer: The value was ≤ -4.2.

Question: With A60C G67C A73G G81A C114A G136C as the variant, how does the “polymerase ribozyme fitness (log ratio)” value read?
Answer: The value was ≤ -4.2.

Question: Which “polymerase ribozyme fitness (log ratio)” value does the source give for A60U C63A C79G C96U A122U C123U here?
Answer: Its value is ≤ -4.2.

Question: With A60G U144A as the variant, how does the “polymerase ribozyme fitness (log ratio)” value read?
Answer: Its value is -0.159.

Question: For A60G U134G G143U, which “polymerase ribozyme fitness (log ratio)” value is on record?
Answer: Its value is -3.39.

Question: For U61A A66U U82C G92C C95G, which “polymerase ribozyme fitness (log ratio)” value is on record?
Answer: Its value is ≤ -4.2.

Question: Which “polymerase ribozyme fitness (log ratio)” value does the source give for A60C G81A C87A G133C G143A U148A here?
Answer: Its value is ≤ -4.2.

Question: Which “polymerase ribozyme fitness (log ratio)” value does the source give for A60U G81U C85U G92U C93G C96A C103U G128A here?
Answer: Its value is ≤ -4.2.

Question: With A60U C69A as the variant, how does the “polymerase ribozyme fitness (log ratio)” value read?
Answer: Its value is -0.294.

Question: Which “polymerase ribozyme fitness (log ratio)” value does the source give for U61A G68A here?
Answer: Its value is ≤ -4.2.

Question: For A60G U61A A97G, which “polymerase ribozyme fitness (log ratio)” value is on record?
Answer: Its value is -1.38.

Question: Which “polymerase ribozyme fitness (log ratio)” value does the source give for U61A A97G G136A here?
Answer: The value was -0.653.

Question: With U61A A89U as the variant, how does the “polymerase ribozyme fitness (log ratio)” value read?
Answer: The value was -0.941.

Question: For A60U U78C A91U C116A G117U, which “polymerase ribozyme fitness (log ratio)” value is on record?
Answer: The value was ≤ -4.2.

Question: For A60U A89C A142U, which “polymerase ribozyme fitness (log ratio)” value is on record?
Answer: Its value is -2.09.

Question: With A60G G80C G140A G141U as the variant, how does the “polymerase ribozyme fitness (log ratio)” value read?
Answer: The value was ≤ -4.2.

Question: For A60C U148G A150U, which “polymerase ribozyme fitness (log ratio)” value is on record?
Answer: The value was ≤ -4.2.

Question: With U61A C85U A97C A120G as the variant, how does the “polymerase ribozyme fitness (log ratio)” value read?
Answer: Its value is -3.26.

Question: Which “polymerase ribozyme fitness (log ratio)” value does the source give for A60C G88C here?
Answer: The value was ≤ -4.2.

Question: Which “polymerase ribozyme fitness (log ratio)” value does the source give for A60U C85A U101A A119G U127C here?
Answer: Its value is ≤ -4.2.

Question: For A60U C99U C118U, which “polymerase ribozyme fitness (log ratio)” value is on record?
Answer: Its value is -2.07.

Question: With A60U C87A C95A C108A A110G as the variant, how does the “polymerase ribozyme fitness (log ratio)” value read?
Answer: Its value is -4.07.

Question: Which “polymerase ribozyme fitness (log ratio)” value does the source give for A60C C93U here?
Answer: Its value is -2.64.

Question: With A60C C93A as the variant, how does the “polymerase ribozyme fitness (log ratio)” value read?
Answer: Its value is -3.64.

Question: Which “polymerase ribozyme fitness (log ratio)” value does the source give for A60G G70A C108G here?
Answer: Its value is ≤ -4.2.
